According to article PMC10858392 (Cell reports, 2023):

Tests used:
Assay in all cases: ELISA
human insulin = human insulin (Homo sapiens, UniProt P01308)
[1] = target: albumin from human serum, low endotoxin (Homo sapiens, UniProt P02768)
[2] = target: lysozyme from chicken egg white (Gallus gallus, UniProt P00698)
ubiquitin (in-house) = ubiquitin (in-house) (Homo sapiens, UniProt P0CG47)

Measured: binding result

Chain of human insulin (P01308 whole entry, looked up): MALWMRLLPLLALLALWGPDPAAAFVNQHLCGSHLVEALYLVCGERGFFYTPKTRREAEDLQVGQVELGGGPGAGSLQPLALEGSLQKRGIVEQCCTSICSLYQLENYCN
Chain of lysozyme from chicken egg white (P00698 19-147): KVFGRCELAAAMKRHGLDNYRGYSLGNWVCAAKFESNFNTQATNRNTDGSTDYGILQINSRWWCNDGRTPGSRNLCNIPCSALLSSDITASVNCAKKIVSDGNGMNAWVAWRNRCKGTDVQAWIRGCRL
Chain of albumin from human serum, low endotoxin (P02768 25-609): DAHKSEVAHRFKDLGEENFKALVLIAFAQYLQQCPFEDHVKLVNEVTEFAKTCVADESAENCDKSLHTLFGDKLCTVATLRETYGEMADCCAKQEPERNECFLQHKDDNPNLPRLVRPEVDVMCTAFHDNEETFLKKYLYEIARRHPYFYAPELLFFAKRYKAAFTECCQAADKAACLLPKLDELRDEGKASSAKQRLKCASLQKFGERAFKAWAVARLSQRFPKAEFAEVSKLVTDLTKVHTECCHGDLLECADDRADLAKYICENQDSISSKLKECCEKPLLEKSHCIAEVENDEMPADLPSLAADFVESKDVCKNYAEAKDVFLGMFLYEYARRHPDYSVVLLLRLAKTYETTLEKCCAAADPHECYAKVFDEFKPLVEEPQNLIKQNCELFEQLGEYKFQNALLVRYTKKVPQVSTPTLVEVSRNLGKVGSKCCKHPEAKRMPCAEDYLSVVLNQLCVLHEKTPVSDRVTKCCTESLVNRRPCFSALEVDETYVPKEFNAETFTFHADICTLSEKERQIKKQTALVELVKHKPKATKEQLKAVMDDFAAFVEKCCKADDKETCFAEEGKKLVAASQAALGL

B1: 43G10 mAb (polyreactive mouse IgA monoclonal antibody, full-length) (antibody, V domains shown)
VH: QVQLKQSGPGLVKPSQSLSLTCSVTGYSITSGFYWTWIRQFPGNKVEWMGYINYAGNNDYNPSLKDRISITRDTSKNQFFLKLNSVTSEDTATYYCTRGTGRIEYWGQGTSVTVSS
VL: DIKMTQSPSSLAVSVGEKVSMSCKSSQSLLYSYNQKNYLAWYQQAPGQSPKLLIYWASTRESGVPDRFTGSGSGTDFTLTISNVKTEDLAVYYCQQYHSHPLTFGQGTKVEIK
binds: human insulin | [1] | [2] | ubiquitin (in-house)

B2: 338E6 mAb (polyreactive mouse IgA monoclonal antibody, full-length) (antibody, V domains shown)
VH: EVKLEESGGDLVKPGGSLKLSCAASGFTFSSYGMSWVRQTPDKRLEWVATISSGGSYTYYPDSVKGRFTISRDNAKNTLYLQMSSLKSEDTAMYYCARRGFYFDYWGQGTTLTVSS
VL: ETTVTQSQKFMSTSVGDRVSVTCKASQNVGTNVAWYQQKPGQSPKALIYSASYRYSGVPDRFTGSGSGTDFTLTISNVQSEDLAEYFCQQYNSYPLTFGQGTKVEIK
binds: human insulin | [1] | [2] | ubiquitin (in-house)
